Experimental findings from US7026125, “Heterodimers of retinoid X receptors (RXRS) and other steroid hormone receptors” (Ligand Pharmaceuticals) are described below.

The target in one data set is T1, RARβ (UniProt P10826-2 P10826-2:1-448).
T1 sequence: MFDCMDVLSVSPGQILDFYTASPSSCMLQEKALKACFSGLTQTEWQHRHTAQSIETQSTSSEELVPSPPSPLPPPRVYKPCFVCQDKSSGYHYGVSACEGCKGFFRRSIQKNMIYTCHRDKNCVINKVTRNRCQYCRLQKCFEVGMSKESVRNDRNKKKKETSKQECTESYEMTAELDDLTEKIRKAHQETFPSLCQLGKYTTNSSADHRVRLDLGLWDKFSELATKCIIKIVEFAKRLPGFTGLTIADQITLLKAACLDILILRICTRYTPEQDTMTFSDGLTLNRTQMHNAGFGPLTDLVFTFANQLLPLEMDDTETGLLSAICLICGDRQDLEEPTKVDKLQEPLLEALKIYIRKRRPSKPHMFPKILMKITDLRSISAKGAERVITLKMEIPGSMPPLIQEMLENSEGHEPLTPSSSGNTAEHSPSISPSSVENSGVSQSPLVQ
Description: EMSA; no detectable complex under conditions used. The settings on record: label: 32P. On the procedure:
(§1) (a) In vitro synthesized TRα, TRβ, RARα, RARβ, RARγ and TRα2 receptor proteins were preincubated either with (+) or without (−) equal amount of in vitro synthesized RXRα protein at room temperature for 10 minutes. Following this preincubation, the reaction mixtures were incubated with ^32p-labelled palindromic TRE (for 1 sequence see FIG. 2a) and analyzed by gel retardation assay as described in Experimental Procedures. […] As a control, equal amounts of TRα and RARα proteins were also mixed and incubated with labelled TRE.
(§2) In vitro translated receptor protein (1 to 5 μl depending on the translation efficiency) was incubated with the ^32P-labeled oligonucleotides in a 20-μl reaction mixture containing 10 mM hepes buffer, pH 7.9, 50 mM KCl, 1 mM DTT, 2.5 mM MgCl, 10% glycerol, and 1 μg of poly(dI-dC) at 25° C. for 20 minutes. In general, relative low receptor concentration was used to obtain the clear effect of heterodimer formation. The reaction mixture was then loaded on a 5% nondenaturing ployacrylamide gel containing 0.5×TBE (1×TBE=0.089 M Tris-borate, 0.089 M boric acid, and 0.002 M EDTA). To analyze the effect of RXRα or the nuclear proteins on receptor DNA binding activity, RXRα or the cell extracts were preincubated with receptor protein at room temperature for 10 minutes before performing the DNA binding assay. When antibody was used, 1 μl of the antiserum was incubated with the specific translation products at room temperature for 45 minutes before performing the experiments described above.
(In EMSA bound probe runs differently from free probe, usually more slowly.)

For another data set, the target named is TRα/RXRαm4 (UniProt P10827-2;P19793 P10827-2:1-410,P19793:61-462, RXRα N-terminal deletion of 61 aa). Kind of data set: EMSA; faster migrating than RXRαm3 complex. The settings on record: label: 32P. On the procedure:
as §2, with “In” for “In vitro translated receptor protein (1 to 5 μl depending on the translation efficiency) was incubated with the ^32P-labeled oligonucleotides in a 20-μl reaction mixture containing 10 mM hepes buffer, pH 7.9, 50 mM KCl, 1 mM DTT, 2.5 mM MgCl, 10% glycerol, and 1 μg of poly(dI-dC) at 25° C. for 20 minutes. In”

Data set [1] has as its target Flag-RXRα/TRα heterodimer (UniProt P19793;P10827-2 P19793:1-462,P10827-2:1-410). Description: EMSA; strongly reduced by anti-Flag. The settings on record: tags: N-terminal Flag on RXRα; label: 32P. On the procedure:
As a control, receptor mixtures were also incubated with preimmune serum (NI).
as §2

In a further data set the target is TRαm1/RXRα (UniProt P10827-2;P19793 P10827-2:1-402,P19793:1-462, TRα C-terminal deletion of 8 aa). Kind of data set: EMSA; interaction unaffected. The settings on record: label: 32P. The method, then:
as §2

A further data set has as its target T2, TRα (UniProt P10827-2 P10827-2:1-410).
T2 sequence: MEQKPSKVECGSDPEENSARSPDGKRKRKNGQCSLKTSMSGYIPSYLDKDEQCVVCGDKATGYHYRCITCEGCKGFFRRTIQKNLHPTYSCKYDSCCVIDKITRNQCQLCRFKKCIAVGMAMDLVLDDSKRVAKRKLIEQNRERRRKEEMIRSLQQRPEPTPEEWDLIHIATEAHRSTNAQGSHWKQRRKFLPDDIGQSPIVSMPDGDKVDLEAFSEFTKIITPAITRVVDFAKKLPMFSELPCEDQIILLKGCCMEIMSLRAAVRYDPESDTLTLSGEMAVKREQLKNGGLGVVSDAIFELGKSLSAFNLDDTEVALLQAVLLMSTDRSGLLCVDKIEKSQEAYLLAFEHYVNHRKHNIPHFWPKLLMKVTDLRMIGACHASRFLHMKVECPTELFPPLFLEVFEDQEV
Description: EMSA; monomer complex; 25 C, 50 mM KCl. The settings on record: label: 32P. On the procedure: as §1
as §2, with “When antibody was used, 1 μl of the antiserum was incubated with the specific translation products at room temperature for 45 minutes before performing the experiments described above.” left out

For another data set, the target named is TRα/RXRαm3 (UniProt P10827-2;P19793 P10827-2:1-410,P19793:28-462, RXRα N-terminal deletion of 28 aa). Description: EMSA. The settings on record: label: 32P. The method, then: as §2
A further data set has as its target T3, Flag-TRα (UniProt P10827-2 P10827-2:1-410).
T3 sequence: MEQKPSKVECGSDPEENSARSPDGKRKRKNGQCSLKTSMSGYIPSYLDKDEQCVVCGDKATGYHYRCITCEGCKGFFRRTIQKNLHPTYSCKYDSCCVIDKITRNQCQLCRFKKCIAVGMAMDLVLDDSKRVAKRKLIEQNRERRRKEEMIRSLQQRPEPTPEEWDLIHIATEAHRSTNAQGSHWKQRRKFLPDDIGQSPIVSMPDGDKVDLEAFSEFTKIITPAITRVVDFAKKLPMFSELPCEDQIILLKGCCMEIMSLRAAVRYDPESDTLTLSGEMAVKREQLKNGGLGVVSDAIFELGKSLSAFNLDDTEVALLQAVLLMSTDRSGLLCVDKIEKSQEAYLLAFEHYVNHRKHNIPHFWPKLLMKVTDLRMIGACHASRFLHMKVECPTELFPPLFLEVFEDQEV
Kind of data set: EMSA; supershifted by anti-Flag. The settings on record: tags: N-terminal Flag; label: 32P. On the procedure: (b) Effect of anti-Flag-TRα antibody on binding of the slow migrating complex. In vitro synthesized Flag-TRα (F-TRα) protein was incubated with in vitro synthesized RXRα protein in the presence or absence of anti-Flag antibody. The effect of antibody on DNA binding of the slow migrating complex was analyzed as described in FIG. 2a. For control, the receptor mixture was also incubated with preimmune serum (NI). The effect of anti-Flag antibody on DNA binding of Flag-RXRα, RXRα, Flag-TRα, and TRα was also analyzed. For comparison, anti-Flag antibody/Flag-RXRα-TRα interaction was run on the same gel (lanes 7–10).
In vitro translated receptor protein (1 to 5 μl depending on the translation efficiency) was incubated with the ^32P-labeled oligonucleotides in a 20-μl reaction mixture containing 10 mM hepes buffer, pH 7.9, 50 mM KCl, 1 mM DTT, 2.5 mM MgCl, 10% glycerol, and 1 μg of poly(dI-dC) at 25° C. for 20 minutes. In general, relative low receptor concentration was used to obtain the clear effect of heterodimer formation. The reaction mixture was then loaded on a 5% nondenaturing ployacrylamide gel containing 0.5×TBE (1×TBE=0.089 M Tris-borate, 0.089 M boric acid, and 0.002 M EDTA). […]

The target in the next data set is RARγ/RXRαm4 (UniProt P13631;P19793 P13631:1-454,P19793:61-462, RXRα N-terminal deletion of 61 aa). Kind of data set: EMSA; faster migrating than RXRαm3 complex. The settings on record: label: 32P. On the procedure:
as §2

The target of data set [2] is Flag-RARγ/RXRα heterodimer (UniProt P13631;P19793 P13631:1-454,P19793:1-462). Kind of data set: EMSA; inhibited by anti-Flag. The settings on record: tags: N-terminal Flag on RARγ; label: 32P. The method, then: as §2
Flag-RARγ/RXRα heterodimer, sequence (P13631 whole entry, chain 1 of 2): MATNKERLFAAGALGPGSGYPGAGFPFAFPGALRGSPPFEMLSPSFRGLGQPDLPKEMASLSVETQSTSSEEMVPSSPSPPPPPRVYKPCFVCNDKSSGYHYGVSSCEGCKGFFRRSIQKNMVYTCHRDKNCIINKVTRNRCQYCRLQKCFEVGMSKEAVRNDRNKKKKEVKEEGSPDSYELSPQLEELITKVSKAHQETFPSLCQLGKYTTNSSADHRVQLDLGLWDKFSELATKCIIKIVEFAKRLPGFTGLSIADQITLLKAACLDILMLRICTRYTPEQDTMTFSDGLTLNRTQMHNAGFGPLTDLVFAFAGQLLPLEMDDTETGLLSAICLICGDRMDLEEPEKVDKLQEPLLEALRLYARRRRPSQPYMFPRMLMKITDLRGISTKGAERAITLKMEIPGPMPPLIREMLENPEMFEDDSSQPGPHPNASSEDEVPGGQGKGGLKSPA
Flag-RARγ/RXRα heterodimer, sequence (P19793 whole entry, chain 2 of 2): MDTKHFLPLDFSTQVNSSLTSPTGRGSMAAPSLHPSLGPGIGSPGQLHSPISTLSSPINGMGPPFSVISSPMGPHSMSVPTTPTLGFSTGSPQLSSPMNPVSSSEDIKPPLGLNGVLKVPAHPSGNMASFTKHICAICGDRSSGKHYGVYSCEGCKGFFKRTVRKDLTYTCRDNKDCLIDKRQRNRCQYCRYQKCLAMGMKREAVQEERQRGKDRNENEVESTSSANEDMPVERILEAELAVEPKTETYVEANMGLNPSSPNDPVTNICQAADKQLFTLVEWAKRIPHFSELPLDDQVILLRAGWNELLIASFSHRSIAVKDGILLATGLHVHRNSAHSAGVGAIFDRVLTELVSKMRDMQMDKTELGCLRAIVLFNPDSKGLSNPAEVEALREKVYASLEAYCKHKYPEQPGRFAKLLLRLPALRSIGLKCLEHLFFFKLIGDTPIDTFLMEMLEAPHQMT

TRα/RXRαm3, sequence (P19793 29-462, stated change not applied, one chain of several): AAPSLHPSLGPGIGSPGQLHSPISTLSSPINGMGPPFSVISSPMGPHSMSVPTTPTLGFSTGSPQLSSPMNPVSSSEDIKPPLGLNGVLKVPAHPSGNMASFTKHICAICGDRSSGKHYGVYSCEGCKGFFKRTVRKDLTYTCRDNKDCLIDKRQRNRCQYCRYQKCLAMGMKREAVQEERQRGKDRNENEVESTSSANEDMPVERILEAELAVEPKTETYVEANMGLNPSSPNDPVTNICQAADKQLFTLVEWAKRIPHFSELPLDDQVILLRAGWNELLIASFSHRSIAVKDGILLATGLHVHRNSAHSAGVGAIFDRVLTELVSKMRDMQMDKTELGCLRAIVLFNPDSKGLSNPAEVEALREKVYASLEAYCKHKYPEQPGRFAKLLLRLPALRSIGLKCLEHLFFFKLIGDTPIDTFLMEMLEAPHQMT
RARγ/RXRαm4, sequence (P13631 whole entry, stated change not applied, chain 1 of 2): as the sequence (P13631 whole entry, chain 1 of 2) above
RARγ/RXRαm4, sequence (P19793 62-462, stated change not applied, chain 2 of 2): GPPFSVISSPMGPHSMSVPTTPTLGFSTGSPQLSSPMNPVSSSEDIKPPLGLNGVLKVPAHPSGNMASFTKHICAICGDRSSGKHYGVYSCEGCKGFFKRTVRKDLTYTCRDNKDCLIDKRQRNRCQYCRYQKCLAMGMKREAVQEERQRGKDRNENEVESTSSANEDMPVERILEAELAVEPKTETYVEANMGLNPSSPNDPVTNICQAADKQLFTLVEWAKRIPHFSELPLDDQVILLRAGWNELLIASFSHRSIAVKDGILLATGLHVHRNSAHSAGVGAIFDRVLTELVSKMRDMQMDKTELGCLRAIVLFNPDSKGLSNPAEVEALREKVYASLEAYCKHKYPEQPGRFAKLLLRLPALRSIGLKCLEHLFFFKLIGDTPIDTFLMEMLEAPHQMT
TRαm1/RXRα, sequence (P19793 whole entry, stated change not applied, one chain of several): as the sequence (P19793 whole entry, chain 2 of 2) above
Flag-RXRα/TRα heterodimer, sequence (P19793 whole entry, one chain of several): as the sequence (P19793 whole entry, chain 2 of 2) above
TRα/RXRαm4, sequence (P19793 62-462, stated change not applied, one chain of several): as the sequence (P19793 62-462, stated change not applied, chain 2 of 2) above

B1: palindromic TRE (dsDNA)
DNA 1: GATCTCAGGTCATGACCTGAGATC
DNA 2: GATCTCAGGTCATGACCTGAGATC
For the molecule B1, the binding result is “no binding” with RARβ; “binds” with TRα/RXRαm4; “binds” in data set [1]; “binds” in the data set with TRαm1/RXRα; “binds” in the data set with TRα; “binds” in the data set with TRα/RXRαm3. In addition, the binding result (with Flag-TRα; in the data set with RARγ/RXRαm4; in [2]) was “binds” throughout.
